Results published in patent publication US20240352102A1 (UNITED STATES GOVERNMENT AS REPRESENTED BY THE DEPARTMENT …, published 2024).

Tests used:
Assay in all cases: peptide microarray
[1] = molecular target: T1, Peptide_037
T1 peptide: KTPPAPKTPPSSGEP

[2] = molecular target: T2, Peptide_040
T2 peptide: GEPPKSGDRSGYSSP

[3] = molecular target: T3, Peptide_041
T3 peptide: KSGDRSGYSSPGSPG

[4] = molecular target: T4, Peptide_045
T4 peptide: PGSRSRTPSLPTPPT

[5] = molecular target: Peptide_046
[6] = molecular target: T5, Peptide_049
T5 peptide: EPKKVAVVRTPPKSP

[7] = molecular target: T6, Peptide_057
T6 peptide: KNVKSKIGSTENLKH

[8] = molecular target: T7, Peptide_062
T7 peptide: KVQIINKKLDLSNVQ

[9] = molecular target: T8, Peptide_066
T8 peptide: KCGSKDNIKHVPGGG

[10] = molecular target: T9, Peptide_068
T9 peptide: KHVPGGGSVQIVYKP

[11] = molecular target: T10, Peptide_070
T10 peptide: VQIVYKPVDLSKVTS

[12] = molecular target: T11, Peptide_071
T11 peptide: YKPVDLSKVTSKCGS

binding result [1]: no binding (tested: 1 ug/ml)
binding result [2]: no binding (tested: 1 ug/ml)
binding result [3]: no binding (tested: 1 ug/ml)
binding result [4]: no binding (tested: 1 ug/ml)
binding result [5]: no binding (tested: 1 ug/ml)
binding result [6]: no binding (tested: 1 ug/ml)
binding result [7]: no binding (tested: 1 ug/ml)
binding result [8]: no binding (tested: 1 ug/ml)
binding result [9]: no binding (tested: 1 ug/ml)
binding result [10]: no binding (tested: 1 ug/ml)
binding result [11]: no binding (tested: 1 ug/ml)
binding result [12]: no binding (tested: 1 ug/ml)
B1: mAb TRC35 (antibody, V domains shown)
VH: QVQLQQPGTELVKPGASVKLSCKASGYTFTSYWLQWVKQRPGQGLEWIGEIDPSDSYTNYNQKFKGKATLTVDTSSSTAYMQLSSLTSEDSAVYYCATLTGSWGQGTTLAVSS
VL: DVLLTQTPLSLPVSLGDQASISCRASQSIVDSNGNTFLEWYLQKSGQSPKVLIYKVSNRFSGVPDRFSGRGSGTDFTLKISRVEAEDLGVYYCFQGSHVPYTFGGGTKLEIK
notes: Mouse hybridoma monoclonal antibody raised in tau knockout mice against tau/poly(A) RNA complexes; IgG1 isotype, kappa light chain; also called TRC35 monoclonal antibody; hybridoma clone #35
